Experimental data taken from patent US20150259426A1 (Novartis, published 2015).

Columns and labels:
[1] = molecular target: T1, cell-bound human DR5 (Colo205 and other human cell lines) (human, UniProt O14763 56-440); assay: FACS, periplasmic extract on Colo205 cells, anti-myc detection
T1 construct: endogenous DR5 of the cell lines

[2] = molecular target: T2, cynomolgus DR5-Fc fusion protein (cyno DR5 amino acids 56 to 213 fused with human IgG1 Fc) (cynomolgus; human); assay: SPR (Biacore), CM5 chip coated with cynomolgus DR5-Fc, 1 to 100 nM NB construct
[3] = molecular target: T3, cell-bound cynomolgus DR5 (CHO-K1 cells transfected with the full length cynoDR5 gene) (cynomolgus); assay: FACS, periplasmic extract on CHO-K1 cells expressing cynomolgus DR5, anti-myc detection
T3 construct: whole, on cells

[4] = molecular target: T2, cynomolgus DR5-Fc fusion protein (cyno …); assay: ELISA, periplasmic extract, plate coated with cynomolgus DR5-Fc, anti-myc detection
[5] = molecular target: cynomolgus DR5 (construct used not stated) (cynomolgus); assay: SPR kinetics (Biacore), cynomolgus DR5
[6] = molecular target: T3, cell-bound cynomolgus DR5 (CHO-K1 cells …); assay: FACS saturation binding, apparent KD, cell-bound cynomolgus DR5

Binder | mean count fluorescence [1] | Kd [2] | mean count fluorescence [3] | ABS405 nm [4] | Kd [5] | Kd [6]
11D1 (monomeric anti-DR5 NB construct) (VHH, llama VHH; periplasmic extract or purified monovalent material from E. coli; not shown: C-terminal c-myc tag and (His)6 tag coded by the vector) VHH: EVQLVESGGGLVQPGGSLRLSCAASGSIDSINNMGWYRQAPGKQRELVAEITPRGRTNYADSEKSRFTISRDNAKRTVNLQMNSLKPEDTAVYYCNAEVRERGTSWYRPDYWGQGTQVTVSS | 919 | 220 nM | 417 | 0.213 ABS405 nm |  | 
7A12 (monomeric anti-DR5 NB construct) (VHH, llama VHH; periplasmic extract or purified monovalent material from E. coli; not shown: C-terminal c-myc tag and (His)6 tag coded by the vector) VHH: EVQLVESGGGLVQAGGSLRLSCAASGRTFSNYAMGWFRQAPGKEREFVAALNWSGGSTYYVDSVKGRFTISRDNAKNTVYLQMNSLKPEDTAVYYCAAAGSFSLGGRPYGDDYWGKGTLVTVSS | 1100 | 7.1 nM | 24500 | 0.341 ABS405 nm |  | 
10F1 (monomeric anti-DR5 NB construct) (VHH, llama VHH; periplasmic extract or purified monovalent material from E. coli; not shown: C-terminal c-myc tag and (His)6 tag coded by the vector) VHH: EVQLVESGGGLVQPGGSLRLSCAASGFTFSRYWMYWVRQAPGKGLEWVSAINSGGGDTYYRDSVRGRFTISRDNFKNTLYLQMNSLKSEDTAVYYCAKAEGPPTFSLIRTMTVDPGAQGTQVTVSS | 125 | 140 nM | 1630 | 0.124 ABS405 nm |  | 
4E6 (monomeric anti-DR5 NB construct) (VHH, llama VHH; periplasmic extract or purified monovalent material from E. coli; also called 4E6 parent; wild type 4E6; not shown: C-terminal c-myc tag and (His)6 tag coded by the vector) VHH: EVQLVESGGGSVQAGDSLRLSCAASGRTFGSIRVGWFRQTPGKEREFVAAINRNDGTTYYADSVKGRFTISRDNAKNTVYMQMASLKPEDTAVYYCAAGLQYNRSADRVPVGAVYWGQGTQVTVSS | 972 | 16 nM | 2870 | 0.313 ABS405 nm | 5.5 nM | 7.3 nM
4E6-Hu (monovalent humanized, N-glycosylation knock-out variant of 4E6) (VHH, produced in E. coli and purified) VHH: EVQLLESGGGLVQPGGSLRLSCAASGRTFGSIRVGWFRQAPGKGREFVSAINRNDGTTYYADSVKGRFTISRDNSKNTVYLQMNSLRPEDTAVYYCAAGLQYNRAADRVPVGAVYWGQGTLVTVSS |  |  |  |  | 1.6 nM | 8.8 nM
